Laboratory results reported in the nanobody polyreactivity screen of Harvey et al. (2022).

Test: yeast display, Sf9 membrane polyspecificity reagent, FACS + sequencing; frameworks hold sequencing errors
Method in brief: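 In a synthetic yeast display library (Saccharomyces cerevisiae BJ5465), nanobody expression was induced with galactose for 36–48 hours. FACS gates were set low and high (top ~1%) using anti-HA fluorescence for expression and streptavidin fluorescence for binding of the Sf9 membrane reagent. Each polyreactivity label is drawn from the gate of origin.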

Sequence	polyreactivity (PSR sort gate)
QVQLVESGGGLVQAGGSLRLSCAASGRIFPYYAMGWYRQAPGKERELVAAISQSGGSTNYADSVKGRFTISRDNAKNTVYLQLNSLKPEDTAVYYCNVDVSRSWAQPYTYDYWGQGTQVTVSS	low polyreactivity
QVQLVESGGGLVQAGGSLRLSCAASGRIFPYYAMGWYRQAPGKERELVATITSGGSTYYADSVKGRFTISRDNAKNTVYLQMNSLKPEDTAVYYCAARYPSIYYYRYDYWGQGTQVTVSS	high polyreactivity
QVQLVESGGGLVQAGGSLRLSCAASGRIFPYYAMGWYRQAPGKEWELVAAISSSSGSTYYADTVKGRFTISRDNAKNTVYLQMNSLKPEDTAVYYCAARKSWRYNIWSRNAYEDWGQGTQVTVSS	high polyreactivity
QVQLVESGGGLVQAGGSLRLSCAASGRIFPYYTRGWYRQAPGKERELVATITTGGSTNYADSVKGRFTISRDNAENTVYLQMNSLKPEDTAVYYCAKREASSRWPYDYWGQGTQVTVSS	low polyreactivity
QVQLVESGGGLVQAGGSLRLSCAASGRIFQAYAMGWYRQAPGKERELVASISYRGGITYYADSVKGRFTISRDNAKNTVYLQMNSLKPEDTEVYYCAAGRKGSMYYWGQGTQVTVSW	high polyreactivity
QVQLVESGGGLVQAGGSLRLSCAASGRIFQGNAMGWYRQAPGKERELVAAIDWSGGGSTYADSVKGRFTISRDNAKNTVYLQMNSLKPEDTAVYYCARDVVWGEDYWGQGTQVTVSS	low polyreactivity
QVQLVESGGGLVQAGGSLRLSCAASGRIFQGYAMGWYRQAPGKERELVAAISVRGGSTFYADSVKGRFTISRDNAKNTVYLQMNSLKPEDTAVYYCATRTRYRGGYWGQGTQVTVSS	high polyreactivity
QVQLVESGGGLVQAGGSLRLSCAASGRIFQGYAMGWYRQAPGKERELVAAITLSGGSTYYADSVKGRFTISRDHAKNTVYLQMNSLKPEDTAVYYCNAYYPDEPSLYDYWGQVTQVTVSS	low polyreactivity
QVQLVESGGGLVQAGGSLRLSCAASGRIFQKNTMGWYRQAPGKERELVAAINWNGGRTYYADSVKGRFTISRDNAKNTVYLQMNSLKPEDTAVYYCAKDGYWDFDYWGQGTQVTVSS	low polyreactivity
QVQLVESGGGLVQAGGSLRLSCAASGRIFQKYAMVWYRQAPGKERELVAAISSGDSTYADSVKGRFSISRDNAKNTVYLQMNSLKPEDTAVYYCAGDLYDPWWYSYMGEYEYWGQGTQVTVSS	low polyreactivity
QVQLVESGGGLVQAGGSLRLSCAASGRIFQPNVMGWYRQAPGIERELVAAIRSGSSTYYADSVKGRFTISRDNAKNTVYLQMNSLKPEDTAVDYCATRYRKQYKPYEYWGQGTQVTVSA	high polyreactivity
QVQLVESGGGLVQAGGSLRLSCAASGRIFQSNAMGWNIQAPGKERELVAASNSGDSTYYADSVKGRFTISRDNAINTVYLQMNSLQPEDTAVYYSAADAVYQYYSYYYWGQGTQVTVSS	low polyreactivity
QVQLVESGGGLVQAGGSLRLSCAASGRIFQTYAMGWYRQAPGKERELVASISWSGGSTYYADSVKGRFTILRDNAKNTVYLQMNSLKPEDTAVYYCAAVYYSTDYYFWYDYWGQGTQVTVSS	low polyreactivity
QVQLVESGGGLVQAGGSLRLSCAASGRIFQTYDMGWYRQAPGKERELVARIRLSGGSTYYADSVKGRFTISRDNAKNTVYLQMNSLKPEETAVYYCAARYSRALFTDPYYYWGQGTQVTVSS	high polyreactivity
QVQLVESGGGLVQAGGSLRLSCAASGRIFQWYAMGWYRQAPGKERELVAAISWRDGRTYYADSVKGRFTISRDNAKNNVYLQMNSLKPEDTAVYYCAVRTFGRYGYWGQGTQVTVSS	high polyreactivity
QVQLVESGGGLVQAGGSLRLSCAASGRIFQYDVMGWYRQAPGKERELVARITYNGGGTYYADSVKGRFTISRDTAKNTVYLQMNSLKPEDTAVYYCNARYPWRDWEDDYWGQGTQVTVSS	low polyreactivity
QVQLVESGGGLVQAGGSLRLSCAASGRIFQYNTMGWYRQAPGKERELVAGISSGGSTNYADSVKGRFTISRDNAKNTVYLQMNSLKPEDTAVYYCAARAKRYNVRFDYWGQGTQVTVSS	high polyreactivity
QVQLVESGGGLVQAGGSLRLSCAASGRIFQYYAMGWYRQAPGKERELVAAIDQSGDTTYYADSVKGRFTISRDNAKNTVYLQMNSLKPEDTAVYYCAAGYDWAYHWVPQWMYYWGQGTQVTVSS	low polyreactivity
QVQLVESGGGLVQAGGSLRLSCAASGRIFQYYAMGWYRQAPGKERELVASISGRGGRTYYADSVKGRFTISRDNAKNTVYLQMNSLKPEDTAVYYCNAVFSTIRYIRSYNYWGQGTQVTVSS	high polyreactivity
QVQLVESGGGLVQAGGSLRLSCAASGRIFQYYDMGWYRQAPGKERELVAAITFSGGSTYYADSVKGRFTISRDNAKNTVYLLMNSLKPEDTAVYYCARGYWVYYPDGDYWGQGTQVTVSS	low polyreactivity
QVQLVESGGGLVQAGGSLRLSCAASGRIFQYYTMGWYRQAPGKERELVAAITYSGGDTRYADSVKGRFTISRDNAKNTVYLQMNSLKPEDTAVYYCAAHYFHQYQYGVWTYGYWGHGTQVTVSS	low polyreactivity
QVQLVESGGGLVQAGGSLRLSCAASGRIFQYYVMGWYRKAPGKERELVAAITRRGTNTYYADSVKGRFTISRDNAMNTVYLQMNSLKPEDTAVYYCAAEAQTKWWDYYYWGQGTQVTVSS	high polyreactivity
QVQLVESGGGLVQAGGSLRLSCAASGRIFRAYAMGWYRQAPGKERELVAAIRGRGGSTYADSVKGRFTISRDNAKNTVYLQMNSLKPEDTAVYYCAAGYYRYAWPYYGGRDYWGQGTQVTVSS	high polyreactivity
QVQLVESGGGLVQAGGSLRLSCAASGRIFRAYAMGWYRQAPGKERELVAAISSGGITSYADSVKGRFTISRDNAKNTVYLQMNSLKPEDTAVDYCAALVYPYWGGSMYYWGQGTQVTVSS	high polyreactivity
QVQLVESGGGLVQAGGSLRLSCAASGRIFRDNAMGWYRQAPGKEREFVARITISTGTTYYADSVKGRFTISRDNAKNTVYLQMNSLKPEDTAVYYCAALYTVSYLTSPVSYRYDYWGQGTQVTVSS	low polyreactivity
QVQLVESGGGLVQAGGSLRLSCAASGRIFRDYAMGWYRLAPGKERELVAAITLSGTTTYYADSVKGRFTISRDNAKNTVYVQMNSLKPEDTAVYYCNAPRYRYRPHEGDYWGQGTQVTVSS	low polyreactivity
QVQLVESGGGLVQAGGSLRLSCAASGRIFRDYAMGWYRQAPGKERELVAAITRSGDTTYYADSVKGRFTISRDNAKNTVYLQMNSLKPEDTAVYYCAARYVSRYYVYRGFEYWGQGTQVTVSS	high polyreactivity
QVQLVESGGGLVQAGGSLRLSCAASGRIFRFYAMGWYRKAPGKERELVAAISSSGVRTYYADSVKGRFTISRDNAKNTVYLQMNSLKPEDTAVYYCAKRTVWWSNWHYYPPTYNYWGQGTQVTVSS	high polyreactivity
QVQLVESGGGLVQAGGSLRLSCAASGRIFRFYAMGWYRPAPGKERELVAAISWNGGRTYYAVSVKGRFTISRDNAKNTVYLQMNSLKPEVTAVYYCATEFYYHWYSPFDYWGQGTQVTVSS	high polyreactivity
QVQLVESGGGLVQAGGSLRLSCAASGRIFRGNGMGWYRQAPGKERELVAAINYSGASTYYADSVKGRFTISRDNAKNTVYLQMNSLKPEDTAVYYCARAWFYRGGEGWLESYIVSGDYWGQGTQVTVSS	low polyreactivity
